B1: anti-PcrV/anti-Psl bispecific antibody STS7B15925M (bispecific antibody)
heavy: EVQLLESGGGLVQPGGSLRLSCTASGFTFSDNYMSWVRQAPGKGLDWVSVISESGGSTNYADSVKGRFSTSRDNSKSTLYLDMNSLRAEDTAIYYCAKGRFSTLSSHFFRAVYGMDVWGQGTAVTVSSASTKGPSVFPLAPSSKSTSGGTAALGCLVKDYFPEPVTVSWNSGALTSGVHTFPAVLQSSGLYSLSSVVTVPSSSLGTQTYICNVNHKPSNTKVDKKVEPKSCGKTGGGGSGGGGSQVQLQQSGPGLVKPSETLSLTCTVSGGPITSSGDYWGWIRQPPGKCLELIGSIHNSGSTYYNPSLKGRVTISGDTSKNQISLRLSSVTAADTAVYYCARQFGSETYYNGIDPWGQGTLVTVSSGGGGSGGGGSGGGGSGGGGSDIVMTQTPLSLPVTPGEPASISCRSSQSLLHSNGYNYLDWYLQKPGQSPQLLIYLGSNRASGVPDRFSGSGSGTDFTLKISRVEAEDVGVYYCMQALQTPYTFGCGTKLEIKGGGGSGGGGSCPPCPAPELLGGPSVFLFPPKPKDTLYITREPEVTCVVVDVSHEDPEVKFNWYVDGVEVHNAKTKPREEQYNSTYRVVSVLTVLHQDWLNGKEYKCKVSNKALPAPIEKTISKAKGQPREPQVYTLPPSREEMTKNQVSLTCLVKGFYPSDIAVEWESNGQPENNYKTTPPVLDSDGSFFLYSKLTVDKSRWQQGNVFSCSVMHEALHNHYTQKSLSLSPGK
light: DIQLTQSPSSLSASVGDRVTITCRASQGISSYLAWYQQKPGKAPKLLIYAASTLQSGVPSRFSGSGSGTDFTLTISSLQPEDFATYYCQQLSSYPLTFGGGTKVEIKRTVAAPSVFIFPPSDEQLKSGTASVVCLLNNFYPREAKVQWKVDNALQSGNSQESVTEQDSKDSTYSLSSTLTLSKADYEKHKVYACEVTHQGLSSPVTKSFNRGEC
notes: Chimeric heavy chain: VH-CH1-linker-scFv(anti-Psl)-linker-CH2-CH3; The Fab is from 7B1 (anti-PcrV); Optimized variant of STS7B15925
B2: anti-PcrV/anti-Psl bispecific antibody STS7B15921M (bispecific antibody)
heavy: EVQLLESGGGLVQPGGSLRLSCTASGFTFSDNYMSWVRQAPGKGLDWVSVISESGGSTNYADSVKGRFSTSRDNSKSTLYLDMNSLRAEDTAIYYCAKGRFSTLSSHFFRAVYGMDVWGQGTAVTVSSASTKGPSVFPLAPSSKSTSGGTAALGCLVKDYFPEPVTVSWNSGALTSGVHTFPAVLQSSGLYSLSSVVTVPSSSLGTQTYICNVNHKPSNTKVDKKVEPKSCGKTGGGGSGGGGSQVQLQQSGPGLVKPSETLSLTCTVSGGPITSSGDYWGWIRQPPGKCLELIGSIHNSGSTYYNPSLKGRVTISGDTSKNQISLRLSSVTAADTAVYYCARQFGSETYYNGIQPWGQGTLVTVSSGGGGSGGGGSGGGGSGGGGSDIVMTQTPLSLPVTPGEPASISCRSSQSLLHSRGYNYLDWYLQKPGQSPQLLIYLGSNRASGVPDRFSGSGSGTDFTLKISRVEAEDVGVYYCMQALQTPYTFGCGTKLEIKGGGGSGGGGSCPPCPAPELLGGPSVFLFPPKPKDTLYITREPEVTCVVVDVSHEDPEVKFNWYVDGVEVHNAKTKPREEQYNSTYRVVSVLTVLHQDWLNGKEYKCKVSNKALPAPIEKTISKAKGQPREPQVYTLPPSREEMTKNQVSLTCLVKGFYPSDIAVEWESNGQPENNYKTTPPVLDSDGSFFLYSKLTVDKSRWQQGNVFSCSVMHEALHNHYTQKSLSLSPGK
light: B1 light
notes: Chimeric heavy chain: 7B1 VH-CH1-linker-scFv(anti-Psl P5921)-linker-CH2-CH3
B3: anti-PcrV/anti-Psl bispecific antibody STS7B1H924M (bispecific antibody)
heavy: EVQLLESGGGLVQPGGSLRLSCTASGFTFSDNYMSWVRQAPGKGLDWVSVISESGGSTNYADSVKGRFSTSRDNSKSTLYLDMNSLRAEDTAIYYCAKGRFSTLSSHFFRAVYGMDVWGQGTAVTVSSASTKGPSVFPLAPSSKSTSGGTAALGCLVKDYFPEPVTVSWNSGALTSGVHTFPAVLQSSGLYSLSSVVTVPSSSLGTQTYICNVNHKPSNTKVDKKVEPKSCGKTGGGGSGGGGSQVQLVQSGAEVKKPGASVKVSCKASGDTSTIHSVHWVRQAPGQCLEWMGTIISSGTTTTYAQSFQDRVSMTIDRSTSTGYMELSSLRFEDTAVYYCTTDGTSWGQGTLVTVSSGGGGSGGGGSGGGGSGGGGSDIQLTQSPSSVSASVGDRVTIACRASQGISSWLAWYQQKPGKAPKLLIYHASTLESGVPSRFSGSGSGTDFTLTISSLQPEDFATYYCLQASSLPHTFGCGTKLEIKGGGGSGGGGSCPPCPAPELLGGPSVFLFPPKPKDTLYITREPEVTCVVVDVSHEDPEVKFNWYVDGVEVHNAKTKPREEQYNSTYRVVSVLTVLHQDWLNGKEYKCKVSNKALPAPIEKTISKAKGQPREPQVYTLPPSREEMTKNQVSLTCLVKGFYPSDIAVEWESNGQPENNYKTTPPVLDSDGSFFLYSKLTVDKSRWQQGNVFSCSVMHEALHNHYTQKSLSLSPGK
light: B1 light
notes: Chimeric heavy chain: 7B1 VH-CH1-linker-scFv(anti-Psl 7H924)-linker-CH2-CH3
B4: anti-PcrV/anti-Psl bispecific antibody STS7B112M (bispecific antibody)
heavy: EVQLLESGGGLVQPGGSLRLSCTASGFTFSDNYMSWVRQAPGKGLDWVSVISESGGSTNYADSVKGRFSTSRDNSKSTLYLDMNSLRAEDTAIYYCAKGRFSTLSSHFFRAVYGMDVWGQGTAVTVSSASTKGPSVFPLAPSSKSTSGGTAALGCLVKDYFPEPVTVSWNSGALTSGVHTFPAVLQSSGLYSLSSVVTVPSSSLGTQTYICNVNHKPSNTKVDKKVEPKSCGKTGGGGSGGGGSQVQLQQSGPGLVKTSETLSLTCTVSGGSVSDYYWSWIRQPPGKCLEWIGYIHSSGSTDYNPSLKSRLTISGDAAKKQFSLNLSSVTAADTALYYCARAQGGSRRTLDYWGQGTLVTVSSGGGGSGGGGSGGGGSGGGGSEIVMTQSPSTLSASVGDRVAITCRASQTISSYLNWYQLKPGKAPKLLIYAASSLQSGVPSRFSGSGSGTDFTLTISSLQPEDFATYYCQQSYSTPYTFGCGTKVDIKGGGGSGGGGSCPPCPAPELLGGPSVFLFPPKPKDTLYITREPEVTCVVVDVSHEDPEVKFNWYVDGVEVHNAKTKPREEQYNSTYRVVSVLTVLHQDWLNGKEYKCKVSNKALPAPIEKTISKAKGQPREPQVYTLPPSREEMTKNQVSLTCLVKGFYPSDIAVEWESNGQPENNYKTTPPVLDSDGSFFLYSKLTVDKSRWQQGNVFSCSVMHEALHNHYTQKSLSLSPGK
light: B1 light
notes: Chimeric heavy chain: 7B1 VH-CH1-linker-scFv(anti-Psl 3F12)-linker-CH2-CH3
B5: anti-PcrV/anti-Psl bispecific antibody STS7B11201M (bispecific antibody)
heavy: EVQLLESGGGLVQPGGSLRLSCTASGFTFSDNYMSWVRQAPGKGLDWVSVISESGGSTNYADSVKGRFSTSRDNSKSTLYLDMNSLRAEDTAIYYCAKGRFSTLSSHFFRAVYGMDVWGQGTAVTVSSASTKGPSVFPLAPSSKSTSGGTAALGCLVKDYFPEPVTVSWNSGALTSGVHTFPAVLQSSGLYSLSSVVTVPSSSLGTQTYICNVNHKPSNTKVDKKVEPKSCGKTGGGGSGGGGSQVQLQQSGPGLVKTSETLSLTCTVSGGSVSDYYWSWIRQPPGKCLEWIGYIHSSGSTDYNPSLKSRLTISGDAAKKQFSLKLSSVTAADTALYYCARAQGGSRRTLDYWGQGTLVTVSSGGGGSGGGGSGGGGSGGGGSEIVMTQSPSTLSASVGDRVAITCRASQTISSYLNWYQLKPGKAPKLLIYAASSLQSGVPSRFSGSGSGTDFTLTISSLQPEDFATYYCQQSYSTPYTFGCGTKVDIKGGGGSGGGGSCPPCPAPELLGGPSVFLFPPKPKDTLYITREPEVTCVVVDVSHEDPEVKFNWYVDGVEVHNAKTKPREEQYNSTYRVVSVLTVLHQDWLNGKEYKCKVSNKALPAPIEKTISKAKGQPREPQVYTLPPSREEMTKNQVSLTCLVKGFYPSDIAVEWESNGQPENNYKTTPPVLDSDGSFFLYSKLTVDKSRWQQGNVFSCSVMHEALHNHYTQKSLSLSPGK
light: B1 light
B6: anti-PcrV/anti-Psl bispecific antibody STS7B159S (bispecific antibody)
heavy: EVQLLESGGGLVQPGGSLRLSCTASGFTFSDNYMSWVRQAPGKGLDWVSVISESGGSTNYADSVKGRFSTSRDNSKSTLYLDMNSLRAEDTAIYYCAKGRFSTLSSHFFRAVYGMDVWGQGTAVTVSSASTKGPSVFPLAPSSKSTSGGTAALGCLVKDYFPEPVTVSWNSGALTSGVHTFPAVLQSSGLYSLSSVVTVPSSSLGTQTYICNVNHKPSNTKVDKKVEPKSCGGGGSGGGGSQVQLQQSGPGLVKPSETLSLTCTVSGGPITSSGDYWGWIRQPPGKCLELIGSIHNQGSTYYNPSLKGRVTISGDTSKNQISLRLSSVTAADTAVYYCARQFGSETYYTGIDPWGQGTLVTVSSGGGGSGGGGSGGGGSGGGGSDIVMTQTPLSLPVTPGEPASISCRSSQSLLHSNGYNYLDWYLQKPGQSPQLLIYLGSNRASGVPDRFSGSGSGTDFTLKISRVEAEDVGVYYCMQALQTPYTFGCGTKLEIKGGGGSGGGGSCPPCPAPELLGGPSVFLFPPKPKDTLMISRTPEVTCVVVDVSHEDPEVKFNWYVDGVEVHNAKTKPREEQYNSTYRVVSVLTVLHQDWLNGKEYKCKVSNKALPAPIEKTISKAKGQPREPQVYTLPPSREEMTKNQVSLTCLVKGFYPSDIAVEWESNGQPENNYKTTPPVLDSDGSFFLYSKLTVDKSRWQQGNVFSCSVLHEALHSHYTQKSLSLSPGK
light: B1 light
notes: also called STS7B1595
B7: anti-PcrV/anti-Psl bispecific antibody STS7B11201S (bispecific antibody)
heavy: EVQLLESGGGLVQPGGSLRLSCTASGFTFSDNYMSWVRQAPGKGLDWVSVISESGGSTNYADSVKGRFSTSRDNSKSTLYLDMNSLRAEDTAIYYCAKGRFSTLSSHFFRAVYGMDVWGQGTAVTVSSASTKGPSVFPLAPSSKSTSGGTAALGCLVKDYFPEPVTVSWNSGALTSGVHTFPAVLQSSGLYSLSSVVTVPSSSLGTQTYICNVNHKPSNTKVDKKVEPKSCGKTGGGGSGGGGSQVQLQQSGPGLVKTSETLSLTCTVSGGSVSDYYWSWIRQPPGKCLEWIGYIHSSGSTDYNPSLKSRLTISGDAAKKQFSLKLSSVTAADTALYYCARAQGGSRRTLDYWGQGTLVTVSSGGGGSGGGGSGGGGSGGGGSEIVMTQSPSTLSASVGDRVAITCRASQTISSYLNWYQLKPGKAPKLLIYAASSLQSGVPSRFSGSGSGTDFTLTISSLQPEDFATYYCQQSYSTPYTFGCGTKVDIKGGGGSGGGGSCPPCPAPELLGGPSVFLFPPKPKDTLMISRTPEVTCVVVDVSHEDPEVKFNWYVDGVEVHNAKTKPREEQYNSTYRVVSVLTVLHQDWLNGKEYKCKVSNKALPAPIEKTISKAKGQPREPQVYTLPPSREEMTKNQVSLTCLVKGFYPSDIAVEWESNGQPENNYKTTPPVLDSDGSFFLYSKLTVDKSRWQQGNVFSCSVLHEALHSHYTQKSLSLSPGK
light: B1 light
notes: also called STS7B112015
B8: anti-PcrV antibody 7B1 (antibody, V domains shown)
VH: EVQLLESGGGLVQPGGSLRLSCTASGFTFSDNYMSWVRQAPGKGLDWVSVISESGGSTNYADSVKGRFSTSRDNSKSTLYLDMNSLRAEDTAIYYCAKGRFSTLSSHFFRAVYGMDVWGQGTAVTVSS
VL: DIQLTQSPSSLSASVGDRVTITCRASQGISSYLAWYQQKPGKAPKLLIYAASTLQSGVPSRFSGSGSGTDFTLTISSLQPEDFATYYCQQLSSYPLTFGGGTKVEIK
notes: Monospecific antibody, optimized from the 13-42 lead

The first test deals with T1, PcrV protein (Pseudomonas aeruginosa type III secretion system protein) (Pseudomonas aeruginosa).
T1 construct: The ELISA used 'synthetic PcrV' as plate coat; Biacore and BLI used 'PcrV protein' in solution; also called synthetic PcrV; Full-length PcrV
Description: ELISA on plate-coated synthetic PcrV, detection with goat anti-human Fc-AP and pNPP, OD410. The method, then:
STS7B15925, STS7B1H9 and STS7B112 were further optimized by introducing variants in the VH, VL, and/or Fc, giving rise to STS7B15925M, STS7B15921M, STS7B1H9M, STS7B1H924M, STS7B112M, and STS7B11201M. For the ELISA experiment, synthetic PcrV or PAO1 was used to coat the wells of a 96-well plate. On the following day, after washing with PBST, blocking with 200 μL PBS-milk for an hour, and another wash with PBST, the respective antibodies were added and incubated for an hour at 37° C. The plate was washed with 0.1% TBST 6 times before 100 μL of Goat-anti-human Fc antibody-AP (1:3000 in PBS) was added to each well and incubated for an hour. After washing with 0.1% TBST for 6 times, 50 μL of pNPP (p-nitrophenyl phosphate) was added to each well and color was developed for […] at 37 C. Subsequently, the colorimetric signals were read by a microplate reader at 410 nm. The ELISA results (OD410) were analyzed and the EC50 values were calculated.
A general note: ELISA stands for enzyme-linked immunosorbent assay.
For the molecule B1, the binding result is recorded as “binds”.

On to B2, for which the binding result is “binds”. The same measure, in the same setting: the result for B3 reads “binds”.

Take B4: the binding result is “binds”.

Regarding B5, the binding result is “binds”.

In a further test the target is T1, PcrV protein (Pseudomonas aeruginosa …). Put plainly: SPR (BIACORE T200), 25 C; antibody captured on CM5 chip, serial dilutions of PcrV protein injected. The method, then: Binding affinity (Kd) of selected bispecific antibodies with respect to PcrV at 25° C. was determined using a real-time biosensor surface plasmon resonance assay (BIACORE™ T200). Briefly, the antibody was first captured on a CM5 chip to form an antibody surface. Serial dilutions of PcrV protein were injected over the antibody surface. Binding of antigen to antibody and dissociation of the bound complex were monitored in real time. Equilibrium dissociation constants (Kd) and dissociation rate constants were ascertained by performing kinetic analysis using BIA evaluation software.
Background: In SPR one partner is held on a chip, and binding of the other changes the refractive index at the surface.
In turn, B6 registered an equilibrium dissociation constant (Kd) of 180 pM, a koff of 3.13e-05 s⁻¹ and a kon of 174000 M⁻¹ s⁻¹. The like results for B7 were, in that order, 265 pM, 4.52e-05 s⁻¹ and 170000 M⁻¹ s⁻¹.

B8 gave a Kd of 335 pM, a koff of 4.82e-05 s⁻¹ and a kon of 144000 M⁻¹ s⁻¹.

The term Kd denotes the free concentration of one partner at which half of the binding sites on the other are occupied at equilibrium, for simple one-to-one binding. The koff is a measure of how fast the partners let go of each other. The term kon denotes the rate constant with which the complex forms.

For the origin of these results see patent publication US20240002482A1 (BEIJING SOLOBIO GENETECHNOLOGY, published 2024).
